Source: the supplement of paper PMC7877785
± gives the uncertainty stated by the source.

Assay: self-splicing fitness, log relative to wild type (ln ratio); higher = more splicing; Tetrahymena group I intron in knt gene, E. coli kanamycin selection, DiMSum; sequences stand for … in CUCUCU…GGAGGGAAAAGUUAUCAGGCAUGCACCUGGUAGCUAGUCUUUAAACCAAUAGAUUGCAUCGGUUUAAAAGGCAAGACCGUCAAAUUGCGGGAAAGGGGUCAACAGCCGUUCAGUACCAAGUCUCAGGGGAAACUUUGAGAUGGCCUUGCAAAGGGUAUGGUAAUAAGCUGACGGACAUGGUCCUAACCACGCAGCCAAGUCCUAAGUCAACAGAUCUUCUGUUGAUAUGGAUGCAGUUCACAGACUAAAUGUCGGUCGGGGAAGAUGUAUUCUUCUCAUAAGAUAUAGUCGGACCUCUCCUUAAUGGGAGCUAGCGGAUGAAGUGAUGCAACACUGGAGCCGCUGGGAACUAAUUUGUAUGCGAAAGUAUAUUGAUUAGUUUUGGAGUACUCGUGGUCG
Method in brief: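 Library with all eight P1ex-region intron nucleotides randomised, intron inside the knt kanamycin-resistance gene on pET-22b(+), in E. coli BL21(DE3). Cells grew overnight at 37°C or 30°C on LB agar with or without 25 μg/mL kanamycin (plus 100 μg/mL carbenicillin, 50 μM IPTG, 0.2% rhamnose), in six replicate transformations. Pooled colonies were amplicon-sequenced on Illumina HiSeq 2500. DiMSum fitness is the error-weighted combination of wild-type-normalised replicate fold changes, kanamycin versus none.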

| Sequence | self-splicing fitness (ln) (30 °C) | self-splicing fitness (ln) (37 °C) |
| --- | --- | --- |
| CCAGAGCAAUAUUACGUCCA | -2.05 ± 0.33 | -1.44 ± 0.35 |
| CCAGAGCAAUAUUACGUCCG | -1.7 ± 0.12 | 0.0963 ± 0.14 |
| CCAGAGCAAUAUUACGUGGA | -4.15 ± 0.23 | -2.03 ± 0.16 |
| CCAGAGCAAUAUUACGUUAC | -3.64 ± 0.46 | -1.7 ± 0.34 |
| CCAGAGCAAUAUUACGUUUC | -3.23 ± 0.22 | -3.61 ± 0.31 |
| CCAGAGCAAUAUUACGUUUU | -3.06 ± 0.18 | -2.62 ± 0.21 |
| CCAUAGCAAUAUUACGAACG | -0.593 ± 0.09 | -0.0842 ± 0.11 |
| CCAUAGCAAUAUUACGACAC | -2.94 ± 0.29 | -1.99 ± 0.37 |
| CCAUAGCAAUAUUACGAUGA | -0.628 ± 0.092 | -0.23 ± 0.1 |
| CCAUAGCAAUAUUACGCAAA | -1.93 ± 0.21 | -2.15 ± 0.3 |
| CCAUAGCAAUAUUACGCACC | -1 ± 0.34 |  |
| CCAUAGCAAUAUUACGCCCU | -2.8 ± 0.29 | -2.84 ± 0.39 |
| CCAUAGCAAUAUUACGCGAG | -2.77 ± 0.16 | -1.22 ± 0.13 |
| CCAUAGCAAUAUUACGCUAC | -4.24 ± 0.28 | -3.23 ± 0.32 |
| CCAUAGCAAUAUUACGGCUG | -3.05 ± 0.15 | -1.62 ± 0.14 |
| CCAUAGCAAUAUUACGGGGC | -2.41 ± 0.15 | -2.95 ± 0.29 |
| CCAUAGCAAUAUUACGGGGU | -3.73 ± 0.18 | -2.46 ± 0.17 |
| CCAUAGCAAUAUUACGGGUA | -3.25 ± 0.27 | -2.87 ± 0.27 |
| CCAUAGCAAUAUUACGGUAU | -3.54 ± 0.24 | -1.34 ± 0.19 |
| CCAUAGCAAUAUUACGGUUA | -3.57 ± 0.29 | -2.73 ± 0.21 |
| CCAUAGCAAUAUUACGUAAU | -3.14 ± 0.15 | -3.15 ± 0.23 |
| CCAUAGCAAUAUUACGUAGC | -2.52 ± 0.21 | -2.05 ± 0.47 |
| CCAUAGCAAUAUUACGUCUU | -3.12 ± 0.15 | -2.56 ± 0.17 |
| CCAUAGCAAUAUUACGUGUG | -2.23 ± 0.09 | -1.07 ± 0.08 |
| CCCAAGCAAUAUUACGAGAG | -2.99 ± 0.079 | -1.93 ± 0.079 |
| CCCAAGCAAUAUUACGAGUG | -2.61 ± 0.16 | -2.94 ± 0.17 |

| Sequence | self-splicing fitness (ln) (30 °C) | self-splicing fitness (ln) (37 °C) |
| --- | --- | --- |
| CCCAAGCAAUAUUACGAUCA | -3.67 ± 0.26 | -2.57 ± 0.16 |
| CCCAAGCAAUAUUACGAUCG | -3.46 ± 0.19 | -2.93 ± 0.19 |
| CCCAAGCAAUAUUACGAUGG | -2.89 ± 0.13 | -1.99 ± 0.13 |
| CCCAAGCAAUAUUACGCAUG | -3.29 ± 0.2 | -2.34 ± 0.22 |
| CCCAAGCAAUAUUACGCCGG | -3.22 ± 0.29 | -2.35 ± 0.32 |
| CCCAAGCAAUAUUACGCGUG | -3.31 ± 0.12 | -3.1 ± 0.18 |
| CCCAAGCAAUAUUACGGAGA |  | -1.03 ± 0.17 |
| CCCAAGCAAUAUUACGGCAU | -3.63 ± 0.16 | -2.84 ± 0.17 |
| CCCAAGCAAUAUUACGGGGC | -4.7 ± 0.39 | -3.08 ± 0.27 |
| CCCAAGCAAUAUUACGGUCG | -2.3 ± 0.094 | -0.827 ± 0.094 |
| CCCAAGCAAUAUUACGUAAU | -4.69 ± 0.17 | -2.97 ± 0.19 |
| CCCAAGCAAUAUUACGUCCG | -3.6 ± 0.43 | -2.45 ± 0.3 |
| CCCAAGCAAUAUUACGUGAU | -3.67 ± 0.13 | -2.45 ± 0.16 |
| CCCAAGCAAUAUUACGUUUU | -3.95 ± 0.18 | -3.26 ± 0.2 |
| CCCCAGCAAUAUUACGACCA | -2.81 ± 0.18 | -1.43 ± 0.16 |
| CCCCAGCAAUAUUACGAGAA | -3.4 ± 0.29 | -2.37 ± 0.23 |
| CCCCAGCAAUAUUACGAGCU | -3.85 ± 0.19 | -2.85 ± 0.2 |
| CCCCAGCAAUAUUACGAUAA |  | -1.49 ± 0.22 |
| CCCCAGCAAUAUUACGAUCG | -2.85 ± 0.13 | -0.917 ± 0.14 |
| CCCCAGCAAUAUUACGCCAC | -3.09 ± 0.13 | -0.923 ± 0.16 |
| CCCCAGCAAUAUUACGCCCA | -2.11 ± 0.26 | -1.37 ± 0.25 |
| CCCCAGCAAUAUUACGCUAC | -2.29 ± 0.17 | -2.05 ± 0.22 |
| CCCCAGCAAUAUUACGGAUA | -3.92 ± 0.24 | -2.65 ± 0.16 |
| CCCCAGCAAUAUUACGGGGC | -2.95 ± 0.1 | -3.43 ± 0.17 |
| CCCCAGCAAUAUUACGGUAC | -3.84 ± 0.25 | -2.66 ± 0.21 |
| CCCCAGCAAUAUUACGGUCC | -3.86 ± 0.18 | -2.9 ± 0.27 |

| Sequence | self-splicing fitness (ln) (30 °C) | self-splicing fitness (ln) (37 °C) |
| --- | --- | --- |
| CCCCAGCAAUAUUACGUAAA | -3.91 ± 0.17 | -2.89 ± 0.26 |
| CCCCAGCAAUAUUACGUAAG | -3.18 ± 0.12 | -1.33 ± 0.12 |
| CCCCAGCAAUAUUACGUAAU | -3.53 ± 0.11 | -1.67 ± 0.11 |
| CCCCAGCAAUAUUACGUCGC | -3.65 ± 0.18 | -2.34 ± 0.2 |
| CCCCAGCAAUAUUACGUCUG | -3.45 ± 0.16 | -2.04 ± 0.14 |
| CCCCAGCAAUAUUACGUGGG | -3.83 ± 0.12 | -2.81 ± 0.14 |
| CCCCAGCAAUAUUACGUGUA | -3.17 ± 0.11 | -2.75 ± 0.13 |
| CCCCAGCAAUAUUACGUUAC | -4.86 ± 0.46 | -2.37 ± 0.28 |
| CCCCAGCAAUAUUACGUUGU | -3.93 ± 0.12 | -2.77 ± 0.13 |
| CCCGAGCAAUAUUACGACGA | -3.44 ± 0.43 | -1.6 ± 0.2 |
| CCCGAGCAAUAUUACGAGUA | -3.01 ± 0.16 | -2.37 ± 0.14 |
| CCCGAGCAAUAUUACGCAUA | -3.7 ± 0.43 | -2.06 ± 0.21 |
| CCCGAGCAAUAUUACGCCAA | -3.35 ± 0.31 | -2.12 ± 0.26 |
| CCCGAGCAAUAUUACGCCUC |  | -1.77 ± 0.34 |
| CCCGAGCAAUAUUACGCGCA | -3.47 ± 0.34 | -1.28 ± 0.3 |
| CCCGAGCAAUAUUACGCGUU | -4.43 ± 0.3 | -2.22 ± 0.28 |
| CCCGAGCAAUAUUACGCUGU | -4.16 ± 0.31 | -2.62 ± 0.27 |
| CCCGAGCAAUAUUACGGUGA | -2.19 ± 0.1 | -1.32 ± 0.097 |
| CCCGAGCAAUAUUACGGUGC | -4.61 ± 0.32 | -2.77 ± 0.16 |
| CCCGAGCAAUAUUACGGUGU | -3.28 ± 0.1 | -1.67 ± 0.094 |
| CCCGAGCAAUAUUACGGUUA | -2.05 ± 0.1 | -1.36 ± 0.1 |
| CCCGAGCAAUAUUACGUAGG | -2.04 ± 0.11 | -1.16 ± 0.14 |
| CCCGAGCAAUAUUACGUAUA | -2.79 ± 0.17 | -2.82 ± 0.26 |
| CCCGAGCAAUAUUACGUCCA | -3.48 ± 0.25 | -2.26 ± 0.24 |
